Experimental data: IntAct's records for PubMed 32296183

B1: Dolichol kinase (Homo sapiens), Q9UPQ8 (parent)
chain: MTRECPSPAPGPGAPLSGSVLAEAAVVFAVVLSIHATVWDRYSWCAVALAVQAFYVQYKWDRLLQQGSAVFQFRMSANSGLLPASMVMPLLGLVMKERCQTAGNPFFERFGIVVAATGMAVALFSSVLALGITRPVPTNTCVILGLAGGVIIYIMKHSLSVGEVIEVLEVLLIFVYLNMILLYLLPRCFTPGEALLVLGGISFVLNQLIKRSLTLVESQGDPVDFFLLVVVVGMVLMGIFFSTLFVFMDSGTWASSIFFHLMTCVLSLGVVLPWLHRLIRRNPLLWLLQFLFQTDTRIYLLAYWSLLATLACLVVLYQNAKRSSSESKKHQAPTIARKYFHLIVVATYIPGIIFDRPLLYVAATVCLAVFIFLEYVRYFRIKPLGHTLRSFLSLFLDERDSGPLILTHIYLLLGMSLPIWLIPRPCTQKGSLGGARALVPYAGVLAVGVGDTVASIFGSTMGEIRWPGTKKTFEGTMTSIFAQIISVALILIFDSGVDLNYSYAWILGSISTVSLLEAYTTQIDNLLLPLYLLILLMA
partner: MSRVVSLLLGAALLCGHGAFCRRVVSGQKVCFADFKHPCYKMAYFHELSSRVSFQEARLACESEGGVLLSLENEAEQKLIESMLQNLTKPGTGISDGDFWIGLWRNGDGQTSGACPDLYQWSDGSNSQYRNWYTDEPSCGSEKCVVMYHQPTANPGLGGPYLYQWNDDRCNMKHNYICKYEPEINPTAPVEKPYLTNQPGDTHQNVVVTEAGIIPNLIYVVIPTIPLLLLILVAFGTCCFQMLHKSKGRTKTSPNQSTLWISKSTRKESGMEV
B2: Ceroid-lipofuscinosis neuronal protein 6 (Homo sapiens), Q9NWW5 (parent)
chain: MEATRRRQHLGATGGPGAQLGASFLQARHGSVSADEAARTAPFHLDLWFYFTLQNWVLDFGRPIAMLVFPLEWFPLNKPSVGDYFHMAYNVITPFLLLKLIERSPRTLPRSITYVSIIIFIMGASIHLVGDSVNHRLLFSGYQHHLSVRENPIIKNLKPETLIDSFELLYYYDEYLGHCMWYIPFFLILFMYFSGCFTASKAESLIPGPALLLVAPSGLYYWYLVTEGQIFILFIFTFFAMLALVLHQKRKRLFLDSNGLFLFSSFALTLLLVALWVAWLWNDPVLRKKYPGVIYVPEPWAFYTLHVSSRH
partner: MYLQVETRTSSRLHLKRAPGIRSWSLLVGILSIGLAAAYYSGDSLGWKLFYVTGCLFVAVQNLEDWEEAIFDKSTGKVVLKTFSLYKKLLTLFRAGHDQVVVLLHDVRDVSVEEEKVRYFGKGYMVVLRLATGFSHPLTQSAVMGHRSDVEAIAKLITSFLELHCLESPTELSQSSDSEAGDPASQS
B3: Golgi SNAP receptor complex member 2 (Homo sapiens), O14653 (parent)
chain: MDPLFQQTHKQVHEIQSCMGRLETADKQSVHIVENEIQASIDQIFSRLERLEILSSKEPPNKRQNARLRVDQLKYDVQHLQTALRNFQHRRHAREQQERQREELLSRTFTTNDSDTTIPMDESLQFNSSLQKVHNGMDDLILDGHNILDGLRTQRLTLKGTQKKILDIANMLGLSNTVMRLIEKRAFQDKYFMIGGMLLTCVVMFLVVQYLT
partner: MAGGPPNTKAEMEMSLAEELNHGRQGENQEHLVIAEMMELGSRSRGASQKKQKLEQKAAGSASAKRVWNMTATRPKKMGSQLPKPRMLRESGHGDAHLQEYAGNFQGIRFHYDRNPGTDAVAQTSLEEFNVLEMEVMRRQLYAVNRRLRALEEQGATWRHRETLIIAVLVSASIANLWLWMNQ
B4: Catenin alpha-3 (Homo sapiens), Q9UI47-2 (parent)
chain: MSAETPITLNIDPQDLQVQTFTVEKLLEPLIIQVTTLVNCPQNPSSRKKGRSKRASVLLASVEEATWNLLDKGEKIAQEATVLKDELTASLEEVRKESEALKVSAERFTDDPCFLPKREAVVQAARALLAAVTRLLILADMIDVMCLLQHVSAFQRTFESLKNVANKSDLQKTYQKLGKELENLDYLAFKRQQDLKSPNQRDEIAGARASLKENSPLLHSICSACLEHSDVASLKASKDTVCEEIQNALNVISNASQGIQNMTTPPEPQAATLGSALDELENLIVLNPLTVTEEEIRPSLEKRLEAIISGAALLADSSCTRDLHRERIIAECNAIRQALQDLLSEYMNNAGKKERSNTLNIALDNMCKKTRDLRRQLRKAIIDHVSDSFLDTTVPLLVLIEAAKNGREKEIKEYAAIFHEHTSRLVEVANLACSMSTNEDGIKIVKIAANHLETLCPQIINAALALAARPKSQAVKNTMEMYKRTWENHIHVLTEAVDDITSIDDFLAVSGMFLFF
partner: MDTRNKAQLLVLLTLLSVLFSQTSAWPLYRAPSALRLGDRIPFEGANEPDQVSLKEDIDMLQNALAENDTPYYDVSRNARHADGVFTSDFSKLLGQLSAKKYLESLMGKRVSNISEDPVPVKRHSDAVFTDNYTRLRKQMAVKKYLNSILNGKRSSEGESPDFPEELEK
B5: Catenin alpha-3 (Homo sapiens), Q9UI47-2 (parent)
chain: B4 chain
partner: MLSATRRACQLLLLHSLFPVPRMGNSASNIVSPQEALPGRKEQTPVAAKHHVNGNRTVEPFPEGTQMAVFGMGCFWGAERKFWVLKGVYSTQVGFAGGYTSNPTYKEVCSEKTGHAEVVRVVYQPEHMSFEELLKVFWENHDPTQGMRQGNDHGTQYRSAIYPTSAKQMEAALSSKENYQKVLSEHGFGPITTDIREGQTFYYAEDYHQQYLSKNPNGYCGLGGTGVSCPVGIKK
B6: Golgi SNAP receptor complex member 2 (Homo sapiens), O14653 (parent)
chain: B3 chain
partner: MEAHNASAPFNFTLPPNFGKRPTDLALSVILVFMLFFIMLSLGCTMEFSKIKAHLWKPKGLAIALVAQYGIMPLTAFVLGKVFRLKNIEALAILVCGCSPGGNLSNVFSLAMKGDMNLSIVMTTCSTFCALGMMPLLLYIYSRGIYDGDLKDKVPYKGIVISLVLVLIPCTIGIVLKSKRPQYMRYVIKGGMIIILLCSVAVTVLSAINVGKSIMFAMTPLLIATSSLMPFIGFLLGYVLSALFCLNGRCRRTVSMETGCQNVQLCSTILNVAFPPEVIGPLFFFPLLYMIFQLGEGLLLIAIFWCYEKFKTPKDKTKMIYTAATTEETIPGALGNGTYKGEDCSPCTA
B7: Golgi SNAP receptor complex member 2 (Homo sapiens), O14653 (parent)
chain: B3 chain
partner: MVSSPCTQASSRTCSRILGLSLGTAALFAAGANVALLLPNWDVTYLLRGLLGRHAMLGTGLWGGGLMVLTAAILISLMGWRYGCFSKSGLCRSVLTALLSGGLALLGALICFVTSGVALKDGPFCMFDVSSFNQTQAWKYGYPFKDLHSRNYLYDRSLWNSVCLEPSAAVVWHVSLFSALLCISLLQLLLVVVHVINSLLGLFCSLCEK
B8: Ceroid-lipofuscinosis neuronal protein 6 (Homo sapiens), Q9NWW5 (parent)
chain: B2 chain

Variants of: B1
Conditions: with chodl_human CHODL

| Variant | effect of a mutation on the interaction |
| --- | --- |
| Y441S | disrupting interaction strength |

Variants of: B2
Conditions: with cybc1_human CYBC1, Q9BQA9

| Variant | effect of a mutation on the interaction |
| --- | --- |
| R6T | disrupting interaction strength |
| L47F | disrupting interaction strength |
| G123D | disrupting interaction strength |

Variants of: B3
Conditions: with fate1_human FATE1, Q969F0

| Variant | effect of a mutation on the interaction |
| --- | --- |
| G144W | with no effect |

Variants of: B4
Conditions: with VIP

| Variant | effect of a mutation on the interaction |
| --- | --- |
| V94D | disrupting interaction strength |

Variants of: B5
Conditions: with msra_human MSRA

| Variant | effect of a mutation on the interaction |
| --- | --- |
| V94D | with no effect |

Variants of: B6
Conditions: with ntcp_human SLC10A1, Q14973

| Variant | effect of a mutation on the interaction |
| --- | --- |
| G144W | with no effect |

Variants of: B7
Conditions: with TM4SF19, Q96DZ7

| Variant | effect of a mutation on the interaction |
| --- | --- |
| G144W | with no effect |

Variants of: B8
Conditions: with stx1a_human STX1A

| Variant | effect of a mutation on the interaction |
| --- | --- |
| R103Q | with no effect |
| R6T | with no effect |
| L47F | with no effect |

Variants of: B8
Conditions: with ar13b_human ARL13B

| Variant | effect of a mutation on the interaction |
| --- | --- |
| R6T | with no effect |
| L47F | with no effect |

Variants of: B8
Conditions: with cxa8_human GJA8, P48165
cxa8_human GJA8, P48165, sequence (P48165 whole entry): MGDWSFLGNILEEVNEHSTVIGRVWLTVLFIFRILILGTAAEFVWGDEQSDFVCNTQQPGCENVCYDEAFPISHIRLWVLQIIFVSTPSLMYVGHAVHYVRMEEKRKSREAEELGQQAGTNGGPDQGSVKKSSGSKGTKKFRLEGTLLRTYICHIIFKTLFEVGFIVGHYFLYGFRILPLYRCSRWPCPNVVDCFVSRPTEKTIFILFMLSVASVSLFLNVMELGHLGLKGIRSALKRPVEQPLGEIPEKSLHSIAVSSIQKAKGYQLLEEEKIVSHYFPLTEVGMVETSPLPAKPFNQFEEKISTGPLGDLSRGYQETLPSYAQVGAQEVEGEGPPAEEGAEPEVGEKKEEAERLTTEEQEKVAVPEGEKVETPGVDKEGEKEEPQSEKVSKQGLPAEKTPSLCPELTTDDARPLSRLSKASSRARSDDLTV

| Variant | effect of a mutation on the interaction |
| --- | --- |
| R6T | with no effect |

Variants of: B8
Conditions: with cd79a_human CD79A

| Variant | effect of a mutation on the interaction |
| --- | --- |
| R6T | with no effect |
| L47F | with no effect |

Variants of: B8
Conditions: with ki2l3_human KIR2DL3, P43628
ki2l3_human KIR2DL3, P43628, sequence (P43628 whole entry): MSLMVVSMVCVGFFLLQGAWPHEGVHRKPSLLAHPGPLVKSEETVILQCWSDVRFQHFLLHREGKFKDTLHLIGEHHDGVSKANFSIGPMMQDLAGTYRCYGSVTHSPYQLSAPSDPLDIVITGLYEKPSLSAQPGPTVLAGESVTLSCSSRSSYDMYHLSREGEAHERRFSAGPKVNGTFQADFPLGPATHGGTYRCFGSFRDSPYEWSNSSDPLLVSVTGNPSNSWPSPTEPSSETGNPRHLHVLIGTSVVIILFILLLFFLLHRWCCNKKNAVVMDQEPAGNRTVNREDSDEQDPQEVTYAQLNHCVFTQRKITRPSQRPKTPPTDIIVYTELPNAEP

| Variant | effect of a mutation on the interaction |
| --- | --- |
| R6T | with no effect |
| L47F | with no effect |

Variants of: B8
Conditions: with lrc25_human LRRC25, Q8N386
lrc25_human LRRC25, Q8N386, sequence (Q8N386 whole entry): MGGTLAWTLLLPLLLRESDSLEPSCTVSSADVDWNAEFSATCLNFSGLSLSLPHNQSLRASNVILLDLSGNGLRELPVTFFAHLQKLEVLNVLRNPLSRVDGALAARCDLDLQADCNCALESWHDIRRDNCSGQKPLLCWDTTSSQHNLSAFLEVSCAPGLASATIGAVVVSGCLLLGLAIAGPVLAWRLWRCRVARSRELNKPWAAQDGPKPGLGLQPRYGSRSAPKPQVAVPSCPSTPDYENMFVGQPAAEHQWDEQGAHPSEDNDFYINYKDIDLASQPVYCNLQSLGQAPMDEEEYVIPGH

| Variant | effect of a mutation on the interaction |
| --- | --- |
| R6T | with no effect |
| L47F | with no effect |

Variants of: B8
Conditions: with tm139_human TMEM139, Q8IV31
tm139_human TMEM139, Q8IV31, sequence (Q8IV31 whole entry): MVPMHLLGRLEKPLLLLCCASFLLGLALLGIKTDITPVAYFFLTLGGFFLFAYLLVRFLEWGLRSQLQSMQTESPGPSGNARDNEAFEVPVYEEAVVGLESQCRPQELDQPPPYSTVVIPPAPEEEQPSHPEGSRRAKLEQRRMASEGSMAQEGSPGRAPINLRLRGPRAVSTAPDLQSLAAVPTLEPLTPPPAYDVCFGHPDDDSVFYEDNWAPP

| Variant | effect of a mutation on the interaction |
| --- | --- |
| R6T | with no effect |
| L47F | with no effect |
